From paper PMC10397247
Where two headings read alike, the source gives them in different places.

T1: 4H432-AA
T1 chain: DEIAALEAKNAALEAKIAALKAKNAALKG

T2: 4H446-AA
T2 chain: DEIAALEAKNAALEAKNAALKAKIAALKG

T3: 4H63-AA
T3 chain: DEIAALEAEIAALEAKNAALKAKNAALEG

T4: APC9806-AA
T4 chain: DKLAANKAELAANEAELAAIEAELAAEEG

T5: 4H3343-AA
T5 chain: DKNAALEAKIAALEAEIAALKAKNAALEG

T6: 4H335-AA
T6 chain: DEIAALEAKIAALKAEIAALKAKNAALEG

T7: 4H342-AA
T7 chain: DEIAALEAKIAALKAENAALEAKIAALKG

T8: 4H3427-AA
T8 chain: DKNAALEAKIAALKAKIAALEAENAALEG

T9: 4H3606-AA
T9 chain: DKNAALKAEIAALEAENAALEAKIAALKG

T10: 4H3627-AA
T10 chain: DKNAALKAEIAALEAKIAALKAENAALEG

T11: 4H3655-AA
T11 chain: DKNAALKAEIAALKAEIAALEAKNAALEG

T12: 4H3844-AA
T12 chain: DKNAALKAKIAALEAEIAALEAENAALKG

T13: 4H3921-AA
T13 chain: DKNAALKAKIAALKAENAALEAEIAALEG

T14: 4H429-AA
T14 chain: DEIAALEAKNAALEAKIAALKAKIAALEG

T15: 4H454-AA
T15 chain: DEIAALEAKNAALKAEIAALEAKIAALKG

T16: 4H48-AA
T16 chain: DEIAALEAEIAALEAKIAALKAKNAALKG

T17: 4H566-AA
T17 chain: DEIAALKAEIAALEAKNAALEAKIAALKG

T18: 4H605-AA
T18 chain: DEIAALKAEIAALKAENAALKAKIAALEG

T19: 4H678-AA
T19 chain: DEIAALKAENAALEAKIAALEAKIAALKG

T20: 4H717-AA
T20 chain: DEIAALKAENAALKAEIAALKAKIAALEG

T21: 4H780-AA
T21 chain: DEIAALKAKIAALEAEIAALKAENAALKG

T22: 4H794-AA
T22 chain: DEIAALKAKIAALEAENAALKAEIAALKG

T23: 4H881-AA
T23 chain: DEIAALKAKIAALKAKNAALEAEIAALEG

T24: 4H906-AA
T24 chain: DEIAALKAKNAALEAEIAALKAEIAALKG

T25: 4H993-AA
T25 chain: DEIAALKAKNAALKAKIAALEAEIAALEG

T26: 4H883-bN
T26 chain: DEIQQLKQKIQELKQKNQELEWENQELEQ

T27: 4H908-bN
T27 chain: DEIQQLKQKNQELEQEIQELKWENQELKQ

T28: 4H918-bN
T28 chain: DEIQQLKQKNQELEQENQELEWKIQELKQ

T29: 4H953-bN
T29 chain: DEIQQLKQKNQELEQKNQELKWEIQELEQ

T30: 4H967-bN
T30 chain: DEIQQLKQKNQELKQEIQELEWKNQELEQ


Tests used:
4H432-AA = molecular target: T1, 4H432-AA; assay: two-hybrid library CCmax;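 further: natural log of median RNA to DNA barcode read ratio; higher means stronger binding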
4H446-AA = molecular target: T2, 4H446-AA; assay: two-hybrid library CCmax; settings: mean of both orientations;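 further: natural log of median RNA to DNA barcode read ratio; higher means stronger binding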
4H63-AA = molecular target: T3, 4H63-AA; assay: two-hybrid library CCmax; settings: mean of both orientations;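 further: natural log of median RNA to DNA barcode read ratio; higher means stronger binding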
APC9806-AA = molecular target: T4, APC9806-AA; assay: two-hybrid library CCmax;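 further: natural log of median RNA to DNA barcode read ratio; higher means stronger binding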
4H3343-AA = molecular target: T5, 4H3343-AA; assay: two-hybrid library CCmax
4H335-AA = molecular target: T6, 4H335-AA; assay: two-hybrid library CCmax
4H342-AA = molecular target: T7, 4H342-AA; assay: two-hybrid library CCmax; settings: mean of both orientations
4H3427-AA = molecular target: T8, 4H3427-AA; assay: two-hybrid library CCmax; settings: mean of both orientations
4H3606-AA = molecular target: T9, 4H3606-AA; assay: two-hybrid library CCmax; settings: mean of both orientations
4H3627-AA = molecular target: T10, 4H3627-AA; assay: two-hybrid library CCmax; settings: mean of both orientations
4H3655-AA = molecular target: T11, 4H3655-AA; assay: two-hybrid library CCmax; settings: mean of both orientations
4H3844-AA = molecular target: T12, 4H3844-AA; assay: two-hybrid library CCmax; settings: mean of both orientations
4H3921-AA = molecular target: T13, 4H3921-AA; assay: two-hybrid library CCmax; settings: mean of both orientations
4H429-AA = molecular target: T14, 4H429-AA; assay: two-hybrid library CCmax; settings: mean of both orientations
4H454-AA = molecular target: T15, 4H454-AA; assay: two-hybrid library CCmax; settings: mean of both orientations
4H48-AA = molecular target: T16, 4H48-AA; assay: two-hybrid library CCmax; settings: mean of both orientations
4H566-AA = molecular target: T17, 4H566-AA; assay: two-hybrid library CCmax; settings: mean of both orientations
4H605-AA = molecular target: T18, 4H605-AA; assay: two-hybrid library CCmax; settings: mean of both orientations
4H678-AA = molecular target: T19, 4H678-AA; assay: two-hybrid library CCmax; settings: mean of both orientations
4H717-AA = molecular target: T20, 4H717-AA; assay: two-hybrid library CCmax; settings: mean of both orientations
4H780-AA = molecular target: T21, 4H780-AA; assay: two-hybrid library CCmax; settings: mean of both orientations
4H794-AA = molecular target: T22, 4H794-AA; assay: two-hybrid library CCmax; settings: mean of both orientations
4H881-AA = molecular target: T23, 4H881-AA; assay: two-hybrid library CCmax; settings: mean of both orientations
4H906-AA = molecular target: T24, 4H906-AA; assay: two-hybrid library CCmax; settings: mean of both orientations
4H993-AA = molecular target: T25, 4H993-AA; assay: two-hybrid library CCmax; settings: mean of both orientations
4H883-bN = molecular target: T26, 4H883-bN; assay: two-hybrid library CCNG1
4H908-bN = molecular target: T27, 4H908-bN; assay: two-hybrid library CCNG1
4H918-bN = molecular target: T28, 4H918-bN; assay: two-hybrid library CCNG1
4H953-bN = molecular target: T29, 4H953-bN; assay: two-hybrid library CCNG1
4H967-bN = molecular target: T30, 4H967-bN; assay: two-hybrid library CCNG1

interaction score (4H342-AA)	interaction score (4H3427-AA)	interaction score (4H3627-AA)	interaction score (4H3655-AA)	interaction score (4H3844-AA)	interaction score (4H3921-AA)	interaction score (4H429-AA)	interaction score (4H454-AA)	interaction score (4H566-AA)	interaction score (4H605-AA)	interaction score (4H678-AA)	interaction score (4H717-AA)	interaction score (4H780-AA)	interaction score (4H794-AA)	interaction score (4H881-AA)	interaction score (4H906-AA)	interaction score (4H993-AA)	Binder	also measured
–	–	–	–	–	–	–	–	–	–	–	–	–	–	–	–	–	DEIAALEAKNAALEAKIAALKAKNAALKG [4H432-AA]	interaction score (4H432-AA): -1.51; interaction score (4H446-AA): -1.7; interaction score (4H63-AA): -1.92
–	–	–	–	–	–	–	–	–	–	–	–	–	–	–	–	–	DKLAANKAELAANEAELAAIEAELAAEEG [APC9806-AA]	interaction score (APC9806-AA): -2.12
-1.13	-0.88	-0.363	-1.03	0.2	-1.44	-1.22	-0.866	-1.55	-1.38	-1.08	-1.27	-1.16	-1.33	-1.72	-1.17	-1.4	DKNAALEAKIAALEAEIAALKAKNAALEG [4H3343-AA]	interaction score (4H3343-AA): 1.37; interaction score (4H335-AA; mean of both orientations): 0.806; interaction score (4H3606-AA): -1.94; interaction score (4H48-AA): -0.868
-0.154	-0.982	1.23	0.662	1.22	-0.804	-0.695	0.512	-1.09	-1.51	-1.15	-1.46	-0.326	-1.3	-1.54	-1.22	-0.48	DEIAALEAKIAALKAEIAALKAKNAALEG [4H335-AA]	interaction score (4H335-AA): 1.81
–	–	–	–	–	–	–	–	–	–	–	–	–	–	–	–	–	DEIQQLKQKIQELKQKNQELEWENQELEQ [4H883-bN]	interaction score (4H883-bN): -1.15; interaction score (4H908-bN): -1.19; interaction score (4H918-bN): -0.986; interaction score (4H953-bN): -1.82; interaction score (4H967-bN): -0.861
